Literature values as cited in article PMC8896763.

Legend:
[1] = target: CD58 (Homo sapiens) (UniProt P19256)
[2] = target: CD48 (Rattus norvegicus) (UniProt P10252)
[3] = target: CD80 (UniProt P33681)
[4] = target: PSGL-1 (Homo sapiens) (UniProt Q14242)
UniProt Q14242, sequence (Q14242 42-320): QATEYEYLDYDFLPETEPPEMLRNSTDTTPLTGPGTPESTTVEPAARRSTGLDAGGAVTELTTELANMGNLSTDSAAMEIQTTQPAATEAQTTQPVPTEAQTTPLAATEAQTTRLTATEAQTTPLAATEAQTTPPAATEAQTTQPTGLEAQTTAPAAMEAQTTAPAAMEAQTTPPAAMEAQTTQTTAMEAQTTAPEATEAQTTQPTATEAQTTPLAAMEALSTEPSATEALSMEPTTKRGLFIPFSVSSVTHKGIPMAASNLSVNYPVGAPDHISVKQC

UniProt P10252, sequence (P10252 23-217): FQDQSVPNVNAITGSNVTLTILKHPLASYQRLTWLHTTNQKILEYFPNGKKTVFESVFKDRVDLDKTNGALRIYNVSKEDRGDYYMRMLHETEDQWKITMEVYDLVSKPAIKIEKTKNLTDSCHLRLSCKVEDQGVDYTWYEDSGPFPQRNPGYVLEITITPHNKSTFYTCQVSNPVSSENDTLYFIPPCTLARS
UniProt P19256, sequence (P19256 29-215): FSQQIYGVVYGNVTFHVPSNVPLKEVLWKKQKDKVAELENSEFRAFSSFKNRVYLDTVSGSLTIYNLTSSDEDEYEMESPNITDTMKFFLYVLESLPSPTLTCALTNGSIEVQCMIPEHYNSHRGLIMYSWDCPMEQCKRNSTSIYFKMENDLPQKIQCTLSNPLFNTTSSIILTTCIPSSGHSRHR
UniProt P33681, sequence (P33681 35-242): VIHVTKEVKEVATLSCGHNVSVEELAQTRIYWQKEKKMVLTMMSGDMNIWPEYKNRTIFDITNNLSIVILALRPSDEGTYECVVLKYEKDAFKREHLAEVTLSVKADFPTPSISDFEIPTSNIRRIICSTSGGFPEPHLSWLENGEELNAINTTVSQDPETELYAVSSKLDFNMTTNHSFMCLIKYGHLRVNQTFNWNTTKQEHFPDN

## CD2 (from UniProt P06729)
[1]
  Kd: 10 µM

## CD2 (from UniProt P08921)
[2]
  Kd: 60 µM

## CD28 (from UniProt P10747)
[3]
  Kd: 2 µM

## P-selectin (from UniProt P16109)
[4]
  Kd: 0.3 µM
